# Tested on: Escherichia coli TOP10
# Assay: shrunken log2 fold change of peptide-encoding DNA abundance (4.5 h post-induction vs induction); higher = less antimicrobial activity (less host growth inhibition)
# Conditions: time post-induction: 4.5 h; library: site-saturation at positions 5, 18, 19, 20
# 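Further: peptides expressed intracellularly from a pBAD plasmid library in pooled LB shake-flask culture, induced with 0.3% L-arabinose, DNA abundance read by NGS, three biological replicates, DESeq2 with apeglm shrinkage.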
row,Sequence,shrunken log2 fold change
1,RRIRWRPPRLPRPRPRPCDVPRP,-0.00226
2,RRIRARPPRLPRPRPRPLRHPRP,0.619
3,RRIRWRPPRLPRPRPRPMCFPRP,0.0876
4,RRIRMRPPRLPRPRPRPTCAPRP,0.827
5,RRIRSRPPRLPRPRPRPLGSPRP,0.193
6,RRIRIRPPRLPRPRPRPTGGPRP,-0.00471
7,RRIRFRPPRLPRPRPRPLRKPRP,0.465
8,RRIRGRPPRLPRPRPRPTEIPRP,0.284
9,RRIRSRPPRLPRPRPRPVKWPRP,-0.03
10,RRIRPRPPRLPRPRPRPRVHPRP,-0.0821
11,RRIRHRPPRLPRPRPRPWVAPRP,-0.0296
12,RRIRKRPPRLPRPRPRPRNWPRP,0.95
13,RRIRCRPPRLPRPRPRPDHAPRP,-0.0323
14,RRIRCRPPRLPRPRPRPMSWPRP,-0.159
15,RRIRMRPPRLPRPRPRPLTEPRP,1.31
16,RRIRRRPPRLPRPRPRPAKEPRP,0.0389
17,RRIRRRPPRLPRPRPRPDAAPRP,1.44
18,RRIRSRPPRLPRPRPRPNPEPRP,0.0679
19,RRIRVRPPRLPRPRPRPIYTPRP,-0.279
20,RRIRTRPPRLPRPRPRPQYHPRP,-0.329
21,RRIRHRPPRLPRPRPRPNTKPRP,-0.0741
22,RRIRPRPPRLPRPRPRPHCCPRP,-0.181
23,RRIRERPPRLPRPRPRPIPWPRP,-0.345
24,RRIRMRPPRLPRPRPRPWSSPRP,-0.145
25,RRIRTRPPRLPRPRPRPMVCPRP,0.0039

row,Sequence,shrunken log2 fold change
1,RRIRFRPPRLPRPRPRPPCWPRP,0.478
2,RRIRARPPRLPRPRPRPHIKPRP,-0.388
3,RRIRRRPPRLPRPRPRPFSKPRP,-0.348
4,RRIRQRPPRLPRPRPRPKYVPRP,0.178
5,RRIRTRPPRLPRPRPRPRHTPRP,-0.16
6,RRIRERPPRLPRPRPRPWTLPRP,-0.407
7,RRIRIRPPRLPRPRPRPDSNPRP,-0.168
8,RRIRERPPRLPRPRPRPMYDPRP,-0.266
9,RRIRVRPPRLPRPRPRPQGIPRP,0.0752
10,RRIRRRPPRLPRPRPRPHMWPRP,-0.0704
11,RRIRFRPPRLPRPRPRPPYAPRP,0.0335
12,RRIRWRPPRLPRPRPRPFRYPRP,-0.501
13,RRIRPRPPRLPRPRPRPRMKPRP,-0.285
14,RRIRGRPPRLPRPRPRPWRGPRP,0.228
15,RRIRLRPPRLPRPRPRPAQIPRP,0.214
16,RRIRVRPPRLPRPRPRPLVKPRP,-0.0152
17,RRIRHRPPRLPRPRPRPKHDPRP,-0.363
18,RRIRQRPPRLPRPRPRPAAQPRP,-0.00152
19,RRIRKRPPRLPRPRPRPKCEPRP,0.848
20,RRIRTRPPRLPRPRPRPVIFPRP,-0.335
21,RRIRTRPPRLPRPRPRPMHQPRP,-0.0917
22,RRIRNRPPRLPRPRPRPSRGPRP,0.513
23,RRIRVRPPRLPRPRPRPIRVPRP,-0.473
24,RRIRERPPRLPRPRPRPEDMPRP,-0.0115
25,RRIRQRPPRLPRPRPRPKSTPRP,-0.228

row,Sequence,shrunken log2 fold change
1,RRIRIRPPRLPRPRPRPWAMPRP,-0.493
2,RRIRYRPPRLPRPRPRPCMAPRP,-0.117
3,RRIRWRPPRLPRPRPRPTCAPRP,0.868
4,RRIRLRPPRLPRPRPRPLWTPRP,-0.0559
5,RRIRERPPRLPRPRPRPCDQPRP,0.0916
6,RRIRARPPRLPRPRPRPPSMPRP,0.425
7,RRIRSRPPRLPRPRPRPAMWPRP,0.0276
8,RRIRIRPPRLPRPRPRPYISPRP,-0.0173
9,RRIRIRPPRLPRPRPRPLIKPRP,-0.756
10,RRIRSRPPRLPRPRPRPPETPRP,0.103
11,RRIRKRPPRLPRPRPRPWCAPRP,0.113
12,RRIRVRPPRLPRPRPRPERTPRP,-0.111
13,RRIRPRPPRLPRPRPRPPVDPRP,0.52
14,RRIRARPPRLPRPRPRPFGDPRP,0.483
15,RRIRKRPPRLPRPRPRPNHWPRP,0.0915
16,RRIRRRPPRLPRPRPRPWTVPRP,-0.00497
17,RRIRFRPPRLPRPRPRPTKDPRP,-0.196
18,RRIRRRPPRLPRPRPRPSVIPRP,-0.00654
19,RRIRWRPPRLPRPRPRPPPCPRP,0.638
20,RRIRDRPPRLPRPRPRPLISPRP,0.116
21,RRIRQRPPRLPRPRPRPSSAPRP,2.99
22,RRIRARPPRLPRPRPRPCHFPRP,-0.0257
23,RRIRPRPPRLPRPRPRPLPEPRP,0.935
24,RRIRHRPPRLPRPRPRPACDPRP,0.285
25,RRIRMRPPRLPRPRPRPGKNPRP,0.417

row,Sequence,shrunken log2 fold change
1,RRIRRRPPRLPRPRPRPWQMPRP,0.0303
2,RRIRCRPPRLPRPRPRPADAPRP,1.44
3,RRIRYRPPRLPRPRPRPVVMPRP,0.00213
4,RRIRVRPPRLPRPRPRPQERPRP,-0.119
5,RRIRVRPPRLPRPRPRPCKVPRP,0.00272
6,RRIRVRPPRLPRPRPRPERIPRP,-0.00978
7,RRIRQRPPRLPRPRPRPIVSPRP,-0.0135
8,RRIRPRPPRLPRPRPRPYPNPRP,-0.159
9,RRIRDRPPRLPRPRPRPIITPRP,-0.0771
10,RRIRFRPPRLPRPRPRPLDQPRP,0.0734
11,RRIRIRPPRLPRPRPRPRFKPRP,-0.575
12,RRIRDRPPRLPRPRPRPLRVPRP,0.679
13,RRIRGRPPRLPRPRPRPFNLPRP,-0.643
14,RRIRCRPPRLPRPRPRPRDVPRP,0.227
15,RRIRARPPRLPRPRPRPQDFPRP,-0.0122
16,RRIRDRPPRLPRPRPRPIMQPRP,-0.0521
17,RRIRKRPPRLPRPRPRPFWRPRP,0.00905
18,RRIRKRPPRLPRPRPRPDWTPRP,1.54
19,RRIRTRPPRLPRPRPRPPWDPRP,0.294
20,RRIRKRPPRLPRPRPRPMIYPRP,-0.718
21,RRIRMRPPRLPRPRPRPLSMPRP,-0.289
22,RRIRGRPPRLPRPRPRPIEDPRP,0.0783
23,RRIRVRPPRLPRPRPRPPLAPRP,0.425
24,RRIRDRPPRLPRPRPRPKVSPRP,0.036
25,RRIRVRPPRLPRPRPRPDHNPRP,-0.488

row,Sequence,shrunken log2 fold change
1,RRIRCRPPRLPRPRPRPTWYPRP,-0.28
2,RRIRTRPPRLPRPRPRPSVSPRP,-0.386
3,RRIRWRPPRLPRPRPRPQWCPRP,-0.0974
4,RRIRMRPPRLPRPRPRPTNNPRP,-0.0518
5,RRIRVRPPRLPRPRPRPQSDPRP,-0.0819
6,RRIRARPPRLPRPRPRPQDDPRP,0.274
7,RRIRMRPPRLPRPRPRPMPHPRP,0.161
8,RRIRMRPPRLPRPRPRPWIHPRP,-0.0313
9,RRIRLRPPRLPRPRPRPVKNPRP,-0.176
10,RRIRKRPPRLPRPRPRPHMVPRP,-0.33
11,RRIRVRPPRLPRPRPRPGRGPRP,0.632
12,RRIRLRPPRLPRPRPRPNFVPRP,-0.196
13,RRIRPRPPRLPRPRPRPFSEPRP,-0.436
14,RRIRHRPPRLPRPRPRPWVFPRP,0.139
15,RRIRDRPPRLPRPRPRPEECPRP,-0.00963
16,RRIRPRPPRLPRPRPRPLIIPRP,-0.605
17,RRIRHRPPRLPRPRPRPRHTPRP,-0.0794
18,RRIRVRPPRLPRPRPRPQKRPRP,-0.0953
19,RRIRDRPPRLPRPRPRPNKTPRP,-0.132
20,RRIRYRPPRLPRPRPRPDTLPRP,-0.195
21,RRIRPRPPRLPRPRPRPFFTPRP,-0.117
22,RRIRIRPPRLPRPRPRPWMPPRP,-0.131
23,RRIRFRPPRLPRPRPRPWMQPRP,-0.139
24,RRIRMRPPRLPRPRPRPCMCPRP,-0.317
25,RRIRWRPPRLPRPRPRPQHQPRP,-0.142

row,Sequence,shrunken log2 fold change
1,RRIRSRPPRLPRPRPRPAERPRP,0.0522
2,RRIRVRPPRLPRPRPRPNKRPRP,-0.158
3,RRIRARPPRLPRPRPRPDGMPRP,-0.141
4,RRIRVRPPRLPRPRPRPDEIPRP,0.0183
5,RRIRPRPPRLPRPRPRPERRPRP,0.158
6,RRIRKRPPRLPRPRPRPFVNPRP,-0.122
7,RRIRTRPPRLPRPRPRPAFQPRP,0.125
8,RRIRMRPPRLPRPRPRPNSMPRP,-0.22
9,RRIRERPPRLPRPRPRPWCIPRP,-1.84
10,RRIRQRPPRLPRPRPRPPDCPRP,-0.0194
11,RRIRERPPRLPRPRPRPRYVPRP,-0.0655
12,RRIRQRPPRLPRPRPRPPHLPRP,0.205
13,RRIRMRPPRLPRPRPRPCDGPRP,0.0158
14,RRIRDRPPRLPRPRPRPTGVPRP,-0.0117
15,RRIRCRPPRLPRPRPRPQSRPRP,-0.016
16,RRIRTRPPRLPRPRPRPAIRPRP,0.00208
17,RRIRFRPPRLPRPRPRPLDVPRP,-0.153
18,RRIRRRPPRLPRPRPRPIMDPRP,0.01
19,RRIRIRPPRLPRPRPRPHISPRP,-0.0489
20,RRIRRRPPRLPRPRPRPHTIPRP,0.141
21,RRIRHRPPRLPRPRPRPNDAPRP,-0.2
22,RRIRNRPPRLPRPRPRPFDLPRP,-0.176
23,RRIRNRPPRLPRPRPRPQDIPRP,-0.252
24,RRIRRRPPRLPRPRPRPGNWPRP,0.393
25,RRIRIRPPRLPRPRPRPPLTPRP,-0.0194

# — the supplement of paper PMC9112550, “Optimization of the antimicrobial peptide Bac7 by deep mutational scanning” (BMC Biology, 2022)
